The data set concerns the molecule itself. Kind of data set: Self-association (oligomer dissociation), inferred from FCS translational diffusion at about 1 nM dsRed. From the text: Fluorescence was collected through the same objective, a dichroic mirror, and 525+/−50 nm (citrine) or 580+/−50 nm (dsRed) filters and focused by a 150-mm achromat into an optical fiber ([…]). The fluorescence signal was detected by a fiber-coupled avalanche photodiode (APD; SPCM-AQ-141-FC; EG & G, Salem, Mass.). The APD signal was processed by using a correlator card (ALV5000; ALV Laser, Germany), and correlation curves were fitted by using the following function (Schwille et al., supra, 2000):
Within experimental uncertainty, our estimated rotational time (i.e., protein volume) agrees with the tetramer hypothesis of dsRed configuration.

In patent US20020157120A1 (University of California, published 2002) one finds Kd data, which are given here for one protein.

Where only a bound is given, the exact number is not on record here.

B1: Discosoma red fluorescent protein, dsRed (other)
chain: MRSSKNVIKEFMRFKVRMEGTVNGHEFEIEGEGEGRPYEGHNTVKLKVTKGGPLPFAWDILSPQFQYGSKVYVKHPADIPDYKKLSFPEGFKWERVMNFEDGGVVTVTQDSSLQDGCFIYKVKFIGVNFPSDGPVMQKKTMGWEASTERLYPRDGVLKGEIHKALKLKDGGHYLVEFKSIYMAKKPVQLPGYYYVDSKLDITSHNEDYTIVEQYERTEGRHHLFL
notes: Wild-type dsRed (CLONTECH DNA) cloned into pRSETB, made in JM109(DE3) E. coli and purified on NiNTA-agarose; The entries describe self-association of dsRed subunits; also called red fluorescent protein (dsRed) from coral; not shown: N-terminal tag from vector pRSETB (protein purified by nickel chelate chromatography)
For the protein B1, the Kd was ≤ 1 nM.

As usually defined, the Kd is the constant that tells how readily two partners part at equilibrium. Lower therefore signals higher affinity.
